Laboratory results from patent CN116917323A.

What was measured:
[1] = biological target: T1, 重组人B7-H4蛋白(R&D Systems#6576-B7-050) (human) (UniProt Q7Z7D3); test: BLI (Octet), antibody on anti-human Fc sensor, recombinant human B7-H4 as analyte, 25 °C
T1 sequence (looked up): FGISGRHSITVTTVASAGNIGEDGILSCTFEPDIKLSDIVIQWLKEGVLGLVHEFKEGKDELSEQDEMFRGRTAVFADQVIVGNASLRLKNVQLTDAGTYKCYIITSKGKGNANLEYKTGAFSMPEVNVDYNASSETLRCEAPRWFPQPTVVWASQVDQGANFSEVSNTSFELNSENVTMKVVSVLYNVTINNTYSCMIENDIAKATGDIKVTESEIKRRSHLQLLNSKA

[2] = biological target: T2, 人B7-H4 (细胞表面B7-H4) (human) (UniProt Q7Z7D3); test: flow cytometry on HCC1569 cells
T2 sequence (looked up): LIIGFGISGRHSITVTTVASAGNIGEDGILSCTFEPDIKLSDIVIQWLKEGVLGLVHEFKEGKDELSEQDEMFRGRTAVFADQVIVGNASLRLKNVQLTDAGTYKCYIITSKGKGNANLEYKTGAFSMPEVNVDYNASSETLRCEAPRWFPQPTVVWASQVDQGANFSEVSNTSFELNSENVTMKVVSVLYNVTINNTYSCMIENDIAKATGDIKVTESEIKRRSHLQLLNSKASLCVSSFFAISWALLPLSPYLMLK

[3] = biological target: T2, 人B7-H4 (细胞表面B7-H4) (human); test: flow cytometry on MX-1 cells

K d, fold lower than that of B4-H4 2F9 [1]: > 100 fold
EC50 [2]: 3.44 nM
EC50 [3]: 4.9 nM
B1: 1D11抗体 (antibody, from another filing, V domains shown)
VH: QVQLQQSGAELVRPGTSVKMSCKASGYTFTSYWIGWAKQRPGHGFEWIGDIYPGGGYTNYNEKFKGKATLTADKSSSTAYMQFSSLTSEDSAIYYCARLDGSSYRGAMDSWGQGTSITVSS
VL: DIQMTQSPSSLSASLGGKVTITCKASQGFNKYVAWYQHKPGQCPRLLIHYTSTLQPGIPARFSGSGSGRDYSFSISNLEPEDSATYFCLQYGNLLYAFGGGTKLEIKR
